This assay deals with GCSF receptor (rat, endogenous, on neurons / in cortex tissue) (rat) (UniProt D4A3R0). Description: cell-based or functional assay.
Sequence of UniProt D4A3R0 (D4A3R0 entry or part of it limits assumed, form in doubt): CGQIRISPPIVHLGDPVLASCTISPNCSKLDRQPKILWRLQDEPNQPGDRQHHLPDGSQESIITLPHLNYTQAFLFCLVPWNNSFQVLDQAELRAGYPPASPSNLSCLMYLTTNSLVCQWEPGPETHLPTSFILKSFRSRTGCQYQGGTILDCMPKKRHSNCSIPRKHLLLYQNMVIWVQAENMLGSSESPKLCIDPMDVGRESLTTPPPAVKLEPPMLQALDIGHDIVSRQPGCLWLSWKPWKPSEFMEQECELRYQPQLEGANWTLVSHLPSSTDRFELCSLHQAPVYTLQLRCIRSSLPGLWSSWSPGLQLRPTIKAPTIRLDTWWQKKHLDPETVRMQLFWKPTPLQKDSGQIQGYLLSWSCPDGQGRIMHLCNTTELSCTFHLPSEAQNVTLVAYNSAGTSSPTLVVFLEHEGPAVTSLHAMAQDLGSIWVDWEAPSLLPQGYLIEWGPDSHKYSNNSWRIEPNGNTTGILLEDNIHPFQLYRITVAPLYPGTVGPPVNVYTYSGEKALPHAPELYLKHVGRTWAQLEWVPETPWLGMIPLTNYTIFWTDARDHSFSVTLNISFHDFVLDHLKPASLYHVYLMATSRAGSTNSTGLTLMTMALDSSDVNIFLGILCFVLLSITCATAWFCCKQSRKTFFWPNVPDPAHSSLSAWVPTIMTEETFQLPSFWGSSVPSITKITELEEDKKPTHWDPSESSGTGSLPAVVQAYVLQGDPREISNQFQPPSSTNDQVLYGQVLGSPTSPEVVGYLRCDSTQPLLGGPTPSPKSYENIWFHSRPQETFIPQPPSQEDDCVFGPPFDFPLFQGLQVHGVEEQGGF

Regarding “recombinant human GCSF, Neupogen (Amgen) (from UniProt P09919 31-207) (ligand)”, the STAT3 nuclear translocation in neurons of the penumbra, percent of STAT3 positive neurons from all neurons (GCSF treated rats versus untreated controls) (percent of STAT3 positive neurons) was 34.4.

For the origin of these results see patent US20120231065A1.
